In patent US20070087001A1 (CENTER FOR MOLECULAR MEDICINE AND IMMUNOLOGY, published 2007):
Ends that are not written are not given here.

Tests used:
[1] = biological target: T1, Recombinant human placenta growth factor-2 (PlGF-2) (human) (UniProt P49763); test: cell-based or functional assay
T1 sequence (looked up): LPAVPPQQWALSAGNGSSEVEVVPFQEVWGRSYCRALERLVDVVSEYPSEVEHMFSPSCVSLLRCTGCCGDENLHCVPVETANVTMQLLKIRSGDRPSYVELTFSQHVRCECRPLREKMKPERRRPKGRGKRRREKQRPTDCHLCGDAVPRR

[2] = biological target: T2, Recombinant human placenta growth factor-2 (PlGF-2) (human, UniProt P49763-3 19-170, limits assumed); test: ELISA, free FLAG-tagged peptide on PlGF-coated wells
T2 construct: Bought protein; also called rhuPlGF
T2 sequence (looked up): T1 sequence (looked up)

[3] = biological target: T3, Recombinant human Flt-1 fusion protein (human, UniProt P17948 27-756); test: ELISA, free FLAG-tagged peptide on Flt-1-coated wells
T3 construct: Bought fusion protein coated on plates at 10 µg/ml; also called VEGFR1; VEGF receptor I
T3 sequence (P17948 27-756): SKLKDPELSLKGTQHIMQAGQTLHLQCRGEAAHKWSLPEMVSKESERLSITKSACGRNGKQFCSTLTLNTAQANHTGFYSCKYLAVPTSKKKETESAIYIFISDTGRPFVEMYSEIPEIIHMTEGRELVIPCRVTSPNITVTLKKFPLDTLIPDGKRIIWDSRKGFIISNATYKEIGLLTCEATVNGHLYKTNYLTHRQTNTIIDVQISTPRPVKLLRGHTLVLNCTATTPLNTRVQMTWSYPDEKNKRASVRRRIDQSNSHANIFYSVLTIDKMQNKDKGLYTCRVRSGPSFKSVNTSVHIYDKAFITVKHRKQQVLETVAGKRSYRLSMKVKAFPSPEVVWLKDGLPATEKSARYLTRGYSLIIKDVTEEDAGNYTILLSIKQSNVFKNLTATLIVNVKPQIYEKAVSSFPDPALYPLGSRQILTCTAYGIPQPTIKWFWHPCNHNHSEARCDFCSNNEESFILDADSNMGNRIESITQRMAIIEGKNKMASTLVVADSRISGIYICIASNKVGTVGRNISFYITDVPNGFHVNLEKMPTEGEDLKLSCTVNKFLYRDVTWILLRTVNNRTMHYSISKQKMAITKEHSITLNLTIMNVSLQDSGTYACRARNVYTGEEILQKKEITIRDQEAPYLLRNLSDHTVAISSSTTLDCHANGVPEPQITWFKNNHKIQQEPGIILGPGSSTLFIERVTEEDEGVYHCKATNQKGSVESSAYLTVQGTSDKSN

[4] = biological target: T4, Recombinant human VEGF 165 (human, UniProt P15692-4 27-191); test: ELISA-based binding assay
T4 construct: Bought protein
T4 sequence (P15692 other isoform, or with tags, fused parts or gaps limits assumed): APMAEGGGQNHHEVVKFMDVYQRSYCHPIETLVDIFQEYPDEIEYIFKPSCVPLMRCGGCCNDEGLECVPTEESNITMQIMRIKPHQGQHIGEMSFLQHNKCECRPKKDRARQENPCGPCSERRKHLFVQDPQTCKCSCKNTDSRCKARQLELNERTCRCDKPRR

[5] = biological target: T2, Recombinant human placenta growth …; test: cell-based or functional assay
[6] = biological target: T2, Recombinant human placenta growth …; test: cell-based or functional assay; remark: listed apart in the source
[7] = biological target: T1, Recombinant human placenta growth factor-2 (PlGF-2) (human); test: phage ELISA on PlGF-coated plates, anti-M13-HRP detection; phage library background 0.003
[8] = biological target: T3, Recombinant human Flt-1 fusion protein; test: ELISA-based binding assay
[9] = biological target: T4, Recombinant human VEGF 165; test: ELISA, FLAG-tagged free peptide on VEGF165-coated wells, anti-FLAG detection

Human recombinant soluble Flt-1 (sFlt-1) (from UniProt P17948 27-756) (receptor)
Block of the stimulatory effect of PlGF on motility, MCF-7 [1]: 67%
Block of the stimulatory effect of PlGF on motility, MDA-MB-231 [1]: 55%
Migrating cells (wound-healing assay, MCF-7, PlGF 2 nM + Flt-1 2 nM) (cells/100x field) [1]: 10.4
Migrating cells (wound-healing assay, MDA-MB-231, PlGF 2 nM + Flt-1 2 nM) (cells/100x field) [1]: 19.1
Migrating cells (wound-healing assay, MDA-MB-468, PlGF 2 nM + Flt-1 2 nM) (cells/100x field) [1]: 7.8
Relative activity (wound-healing assay, MCF-7) (relative to PlGF-only = 100) [1]: 47
Relative activity (wound-healing assay, MDA-MB-231) (relative to PlGF-only = 100) [1]: 45
Relative activity (wound-healing assay, MDA-MB-468) (relative to PlGF-only = 100) [1]: 53

B1: Peptide BP3 synthesized with a linker and a C-terminal FLAG epitope (peptide, not shown: small tags and cut ends)
peptide: QEAFNRLTSRMHDYKDDDDK
modifications: also: linker between peptide and FLAG epitope, sequence not given here
binding result [2]: no binding (tested: 50 µM)
binding result [3]: no binding

B2: Control peptide CPA (BP1 with A substituted for the H, R and D residues) (peptide)
peptide: SAAYALAIQLAASASSSSCV
binding result [4]: binds
Relative activity (wound-healing assay, MDA-MB-231) [5]: 106 relative to PlGF-only = 100
Relative activity (wound-healing assay, MDA-MB-468) [5]: 147 relative to PlGF-only = 100
Average fold-change in invading cells vs untreated (MCF-7, PlGF 0.2 nM + CPA 2 µg/ml) [6]: 1 fold vs untreated
Average fold-change in invading cells vs untreated (MDA-MB-231, PlGF 0.2 nM + CPA 2 µg/ml) [6]: 4.9 fold vs untreated
Average fold-change in invading cells vs untreated (MDA-MB-468, PlGF 0.2 nM + CPA 2 µg/ml) [6]: 1.2 fold vs untreated

B3: Phage BP1 (BP1 peptide displayed on M13 phage) (peptide, not shown: large carriers; small tags and cut ends)
peptide: SHRYRLAIQLHASDSSSSCV
modifications: also: displayed on M13 phage, fused to pIII coat protein, spacer and fusion end not given here
absorbance (410 nm) [7]: 0.024 A410

B4: Peptide BP1 (Binding Peptide 1) synthesized with a linker and a C-terminal FLAG epitope (peptide, not shown: small tags and cut ends)
peptide: SHRYRLAIQLHASDSSSSCVDYKDDDDK
modifications: also: linker between peptide and FLAG epitope, sequence not given here
notes: detected by probing for FLAG
fold over background [8]: 10 fold over background
A490 [9]: 0.299 A490

B5: Binding Peptide 1 (BP1), synthetic peptide (peptide)
peptide: SHRYRLAIQLHASDSSSSCV
Relative activity (wound-healing assay, MCF-7) [5]: 45 relative to PlGF-only = 100
Relative activity (wound-healing assay, MDA-MB-231) [5]: 32 relative to PlGF-only = 100
Relative activity (wound-healing assay, MDA-MB-468) [5]: 97 relative to PlGF-only = 100
Average fold-change in invading cells vs untreated (MCF-7, PlGF 0.2 nM + BP1 2 µg/ml) [6]: 0.3 fold vs untreated
Average fold-change in invading cells vs untreated (MDA-MB-231, PlGF 0.2 nM + BP1 2 µg/ml) [6]: 1.3 fold vs untreated
Average fold-change in invading cells vs untreated (MDA-MB-468, PlGF 0.2 nM + BP1 2 µg/ml) [6]: 0.6 fold vs untreated

B6: Peptide BP4 synthesized with a linker and a C-terminal FLAG epitope (peptide, not shown: small tags and cut ends)
peptide: RMPYSEHSAPLGDYKDDDDK
modifications: also: linker between peptide and FLAG epitope, sequence not given here
binding result [2]: no binding (tested: 50 µM)
binding result [3]: no binding
